This data set can be described thus: soluble on expression in E. coli; label from the status in PepcDB or PDB records.
Take “MGSDKIHHHHHHMIHFVPPHLEKVRAKLPEIAPTVDVILANLEDAIPADAKGAALAGLVAMSREVDFKALGVGFWTRINCLNSPWHLDEIATIVEKAGDKIDVIMVPKVEGPWDIFYMDQLLASLEAKHGVTRPILLHAILETAEGVMNVEAIAAASPRMQGISLGPADLAASRAMKTTRVGGGHPGYRVIEDPHADGSARVSVQQDLWHYTFAKMVDACAAHGIKPFYGPFGAIDDPVACEQQFRNAFLMGCAGAWSLHPSQIEIAKRVFSPDPAEVAFAKKILEAMPDGTGVAMIDGKMQDDATWKQAKVMVDCARQIAGKDAEYAGLYGL”: the “soluble on expression in E. coli” value is given as “not soluble”.

Consider “MGSDKIHHHHHHMDELVDGERESGRAALGRTLRLLREKSGKTLGQLAGETSYDKSYLYRLETGERLSKRAVMEDLDRYHGSGDLLVRLWRDARKDVIKDKYKAFMELEATARVMWKFQLRVPGLLQTEDYARVVLSGLSRAQTTAGNGEEVEEQVAARVGRQEMLHRQPAPSVRVILDEGALRRRVPKEKVWADQLVHLVDVAELASVTLQVLPFTAGVHDLMNSDLTLMWQRVGEPVAYVEGNGFGELVDDPDKVLSYRLSYDLVRDAALTPAESTTFIKRLLEECRS”, for which the “soluble on expression in E. coli” value is given as “not soluble”.

With “GPGSMDDGFSRILLAWFSNNPSFGKTIPVTAGQAVLNTLYIRYVVNKSVSFEDILAYQFRWVSANDAATEVFNKFTDGKESMTSEQLGKFLRDVQRSDVTDRQIVEKFKYCFGGGIHKYNFISYNGSVLTNNAIDPARTSDVWQDMTQSFTHYMVSCARIEAEEDLKRAAADGTRALVLNINKASNGKLMVGSCELQTILEGVKKNGFATNTYPIVLCLSPGTPMPTPVQDEVAKMINDILESAVAEGLMFEGAMINDPKFSPGALRNKVLVMSHQSRLKPFIGFLVADMNKDGLGVRVTDVMEGTPASKGGVLKDDWLTHINGIPIQNKQHLRETLARLKAGDEFTVRRENLHDVKVVVGGAIDPQDTTASASLSSITFFKYSDSNDPKPWDTERIPASSLATTKLTRKDLLTHFAFCTVNSAEASTELPDAEGKAASLGIQFVDVDNSERCLPWTRGRFSDNGRCGYILKTDIDSAKSPELSLSVIGGPRLLNCSPLTSMNVTIHGAGTARVNGSQVSFTDCNQATIAVVQMTFEANGAERTFTSAFCPGLLRPGYRALPSVPFGEERASKKQIHGIYCFIK”, the “soluble on expression in E. coli” value is given as “not soluble”.

As for “MKTLLPTSTAGSLPKPSWLAEPEKLWSPWKLQGEELIDGKRDALRVALQEQELAGVDIVSDGEQTRQHFVTTFIEHLSGVDFENRKTVTIRNRYEASVPTVVGPVSRTKPVFVEDAKFLRQQTKQPIKWALPGPMTMIDTLYDDHYGSREKLAWEFAKILNQEAKELEAAGVDIIQFDEPAFNVFFDDVNEWGIACLERAIEGLKCETAVHICYGYGIKANTDWKQTLGTEWRQYEEVFPKLQQSNIDIISLECHNSRVPIELLELIRGKKVMVGAIDVATNEIETPEEVANTLREALKYVDADKLYPCTNCGMAPLSREVSTAKLNALSAGAEIVRRELSALEHHHHHH”, the “soluble on expression in E. coli” value is “not soluble”.

Consider “MATFESSLKPRLIYVFAIADARHEGSLKIGETTLNDDVGSASTEPNSEVLNKAAKARIDQYTKTAGIGYELLYTELTIYFSGGRVCSFNDKQVHSVLERSGVKRKSFAGATEWYSCDLATVKRAISAIKEGKDSLGASEVTLSDNPIILRPEQKEAIERTLKQFRKGNKMLWNAKMRFGKTLCALRVAKEMEAVRTIIITHRPVVDASWFEDFGKTFYDRPEWHYGSRSKGESFASLEKLASQGKKCVYFASMQDMRGSKDVGGKFDKNNEVFSTSWDLVIVDEAHEGTQTELGKAVLGQLMGKDTKALHLSGTPYNLFDQHKEEEVFTWDYVMEQQAKIDWEINHLGDTNPYASLPAIHIYTYDLGRLISEYSDEEKAFNFREFFRTREDGSFVHEGDIDRFLSLLCREDEEALYPYSNEHFRQIFRHTLWILPGVRAAKALSKKLSKHPIFGLFKVANVAGDGDDEEEESRDALELVNQAIGKDPDETYTITLSCGRLTTGVSIKP”, for which the “soluble on expression in E. coli” value is given as “not soluble”.

With “IKNDGLKLDAYYLPAGKATNKTVIIIHGFRRNKTGMKAYTDMFANLGYNTLTVDNRGHGKSQGHYVGFGWLDKGDVEAWIRYLISKNKNVEIVPFGISMGGATVAMMSGDSLPSNVKALIEDSGYTSVEAEITYEAKAMYNLPQKPFVSTVSLISKLFAGYSYTEASSIKQVEKNTRPMLFMHGGADSYVPTKMVYQLYNADKDPEKQLWIAPNSGHVQGFGDHPSAYTAQIKKFLNLYFK”, the “soluble on expression in E. coli” value was “not soluble”.

As for “SNAMLKREMNIADYDAELWQAMEQEKVRQEEHIELIASENYTSPRVMQAQGSQLTNKYAEGYPGKRYYGGCEYVDVVEQLAIDRAKELFGADYANVQPHSGSQANFAVYTALLQPGDTVLGMNLAQGGHLTHGSPVNFSGKLYNIVPYGIDESGKIDYDEMAKLAKEHKPKMIIGGFSAYSGVVDWAKMREIADSIGAYLFVDMAHVAGLIAAGVYPNPVPHAHVVTTTTHKTLAGPRGGLILAKGGDEELYKKLNSAVFPSAQGGPLMHVIAGKAVALKEAMEPEFKVYQQQVAKNAKAMVEVFLNRGYKVVSGGTENHLFLLDLVDKNLTGKEADAALGRANITVNKNSVPNDPKSPFVTSGIRIGSPAVTRRGFKEAEVKELAGWMCDVLDNINDEATIERVKAKVLDICARFPVYA”, the “soluble on expression in E. coli” value is reported as “soluble”.

On to “MGSDKIHHHHHHMFRRHGIIAFSSNYELYADMSNRVMTTLEELSPRCEIYSIDEAFCDLTGVRNCRDLTDFGREIRETVLRRTHLTIGVGIAQTKTLAKLANHAAKQWQRQTGGVVDLSNLERQRKLMALLPVDEVWGVGRRISKKLEAMGIKTVLQLADTDIRFIRKHFNVVLERTVRELRGEPCLGLEEFAPVKQEIVCSRSFGGRITEYHEMRQAICSYASRAAEKLRGEHQYCRFISAFVKTSPFALNEPYYGNSASVKLLTPTQDSRDIITAATKCLDAIWRDGHRYQKAGVMLGDFYSQGVAQLNLFDDNAPRKGSEKLMEVLDHLNAKGGRGTLYFAGQGIQTAWQMKREMLSPRYTTRFCDLLKVR”, for which the “soluble on expression in E. coli” value is given as “not soluble”.

Turning to “MPQVQSWFPVQKQPTLAVTFTPLPQLSHAHLPLPPSHLVTKTDAMFQHQLLPTQLQPFPPNHTPLLLLLTVTTMAVTPRLSLLNVLKKLQQPPFLQNHTLLLPLLTVTTTAVTPRLSLPRLPNKHHWPLAQSPSLLLQLLILLLPAPSLVLSFNPKVWLLV”, the “soluble on expression in E. coli” value is reported as “not soluble”.

For the sequence “MIRLTNIKLPLDHQEHELEQAILTKLSIKAVQLIKFTVFKRGYDARKKNSIFLIYTLDVETNVDEALLATFIADTQVKETPDMAYKFVSQAPKNLKNRPVVIGMGPCGLFVGLVLAQMGFNPIVLERGQEVRQRTKDTFGFWRKKILNTESNVQFGEGGAGTFSDGKLYSQVKDPKHYSRKVLHEFVAAGAPEEILYVSKPHIGTFKLVTMVEKMRAKIFELGGEVRFNQRVDKIHFTDVEGNECTAQGIEGYQNKKVTGLTLSNGDHIETNYIALAIGHSARDTFSMLFDEDVYMKAKPFSVGFRIEHEQAVIDEARFGNNAGNEILGSADYKLVHHCSNGRSVYSFCMCPGGTVVAAASEEGRLVTNGMSQYSRLERNANSAIVVGIEPEDFITSEFASDRDYVLAGMEFQRNLEAKAFKLGGESYDAPVQLVGDFLAGRKSGEHGSVAPSYKPGVTYCDLSETLPDYAIAAIREALPAFDKKIKGFSMAEATLTAVETRTSSPIQITRDKETLQSLNAQGLYPAGEGAGYAGGILSAGIDGIKIAEAMALAITAEQEHLEHHHHHH”, the “soluble on expression in E. coli” value is on record as “not soluble”.

As to “MRTQWPSPAKLNLFLYITGQRADGYHTLQTLFQFLDYGDTISIELRDDGDIRLLTPVEGVEHEDNLIVRAARLLMKTAADSGRLPTGSGANISIDKRLPMGGGLGGGSSNAATVLVALNHLWQCGLSMDELAEMGLTLGADVPVFVRGHAAFAEGVGEILTPVDPPEKWYLVAHPGVSIPTPVIFKDPELPRNTPKRSIETLLKCEFSNDCEVIARKRFREVDAVLSWLLEYAPSRLTGTGACVFAEFDTESEARQVLEQAPEWLNGFVAKGANLSPLHRAMLLEHHHHHH”, the “soluble on expression in E. coli” value is recorded as “not soluble”.

As to “MGSDKIHHHHHHMTTILQLSDLHIGPHNDEKDQKTYDLIHHMMTHYQPDITVLTGDQIWSEGVIDSGRVYKKLMEYLNRYDTQIATTFGNHDTEGHLKRSDLRAIEDQYSTNYVQKNHSLIVDDKEAYTIEVVNNDTVTHVLYVIDGGDYNPFGIGDYDFIRPEHVNWLRETHQAYQTQFQHNFQHNLLFTHIPLQEYREVENIGEYHGIFNEPIACSKINSGLFSQMLLNGDIEGMFCGHDHDNDFTINLYGIRLSFGRIGGYNTYGDLQRGARLIELQPDAIYKSKVLEFDDRF”, the “soluble on expression in E. coli” value is on record as “not soluble”.

Turning to “MTTLYSIQEKYQQLLNLAEQLDPEALKDTLESIEDELETKAENVAFVIKELEGQSLILDVEIKRLSERKNTINNNVKRLKQSLHDAMLVANKQKIKTNLFTLDIRKNPHSVFVEDESKLINYLVEQPKKLDKTKLKDDLKKGIDVPGAVLVQTERLQIK”, the “soluble on expression in E. coli” value was “not soluble”.

As for “MAIFHLDFKIVKRSEGKSSVAKAAYHARCKITDERTGDTYDYSRRDDLYGHFILAPANAPEHIVKDSTSLWNEVERVERQNNGQTARYFDVSIPTELNNDEKKKLVLEYCQKNFVDKGMIADIAFHDLDSDNPHAHVMLTLKTIGPEGFGKKERSWNDRKMSVLWRESWASMANSYLATAGSSERIDHRSLQAQHEEALEKAAVALDNEEKALWLAKAAETNRPPMKRIHSAKWRSKAAQEQRAAEQTVRDAAKLEAVEVYKTFSELDLEIVVDVRSFTISVLPKPEEIVIPDFSTREKHQSIVSPVTSRRPAVKSYRAPNKATKVGMRGEGTPVLVAPEPNKSTKLKTSSSKKTRAMNRAPMHSRKQVKPHQNGLFKRLTTYMVCLFKEKFIWSKKKPIPVDAEHDKRIADNYVFDEIQGIYVSRAEYERRARFNNGTYSPAPDEVRRFPHRTKEEQHKVDDEPDYDPSSTPVPIISRKHLSLKPLEHHHHHH”, the “soluble on expression in E. coli” value was “not soluble”.

On to “MGEPKDSLALFLCHESESSLNEDDDETIERSDKQEPHFTTTIDDEDYVADLVLKENLRFETLPSKTTSSSDRLIAIDWILTTRTRFGFQHQTAYIAISYFDLFLHKRFIGLQKDETWAMRLLSVACLSLAAKMEERIVPGLSQYPQDHDFVFKPDVIRKTELLILSTLDWKMNLITPFHYFNYFLAKISQDNHSVSKDLVLLRSSDSLLALTKEISFTEYRQFVVAAVTTLLASSSTSSDIRLTREEIANKFGSISWWTSNENENVYLCYQRTLEIEERKHMTPPPEIAVSREPPASGSGAKRRLSFDDSDQSSPPAKRMRRL”, for which the “soluble on expression in E. coli” value is reported as “soluble”.

Regarding “MGSDKIHHHHHHMNEDLFYDRLHQRCPGKYLLEELETSKSNDVLHASRFVCEMELVQKTNAYYCKTIVKMLLDHEWIFAKAFTIVNDGEDEIEIYDYLYEKYIKLLSTGKPDPMMKDVVRYRFDEDVKITIEETPNLISAASTTGFRTWEAALYMGDFLIHKPLQELAPVQGQDDGKKKLNVLEVGAGTGIVSLVILQKYHEFVNKMYVTDGDSNLVETQLKRNFELNNEVRENEPDIKLQRLWWGSDRVPEDIDLVVGADVTYDPTILPDLCECLAECLALDRCKLCLLSATIRSESTVQLFSQECNKLGLKCTIVTSTEYDANNEIRAMKALQFKPLIAPIRIYKITKQ”, the “soluble on expression in E. coli” value is reported as “not soluble”.

Take “MVHYKLSYFPIRFAGEIPRQILAYAGQKFEDHRIPQADWPALKSTMPFGTLPVLYQDGKPLGQSHAISRFLARQFGINGRCPWEEAQVNAIADQFKDYLNDIRSYNLVKMGFAQGDADALYKDTFLPNFKKNYQFFTNFLKASGSGFLIGDSVTWVDLLIAQHTSDLLSDSGSVFAASQSLLDEFPELKAHQKKIHSIPNIKKWVETRPVTPF”: the “soluble on expression in E. coli” value was “not soluble”.

“GAGNYQLAVSTLAKVWKQLHIPDVYDVGAMYFIKTFLHFGVSLLSAGHAWTNPQSFLDNAPLRQTLGKMMPFDGIEPSIASGALQALALTASCYTTGMSVTFFQGEESLGEWTRYQRLGVRERIGLDHLMATAAIPLIFPSVRIGEKFYCDGAVRQLSPLSPALH”: the “soluble on expression in E. coli” value is “not soluble”.
